Assay results from IntAct's records for PubMed 23624502.

B1: Ras-related protein Rab-39B (Mus musculus), Q8BHC1 (parent)
chain: MEAIWLYQFRLIVIGDSTVGKSCLIRRFTEGRFAQVSDPTVGVDFFSRLVEIEPGKRIKLQIWDTAGQERFRSITRAYYRNSVGGLLLFDITNRRSFQNVHEWLEETKVHVQPYQIVFVLVGHKCDLDTQRQVTRHEAEKLAAAYGMKYIETSARDAINVEKAFTDLTRDIYELVKRGEITIQEGWEGVKSGFVPNVVHSSEEVIKSERRCLC
partner: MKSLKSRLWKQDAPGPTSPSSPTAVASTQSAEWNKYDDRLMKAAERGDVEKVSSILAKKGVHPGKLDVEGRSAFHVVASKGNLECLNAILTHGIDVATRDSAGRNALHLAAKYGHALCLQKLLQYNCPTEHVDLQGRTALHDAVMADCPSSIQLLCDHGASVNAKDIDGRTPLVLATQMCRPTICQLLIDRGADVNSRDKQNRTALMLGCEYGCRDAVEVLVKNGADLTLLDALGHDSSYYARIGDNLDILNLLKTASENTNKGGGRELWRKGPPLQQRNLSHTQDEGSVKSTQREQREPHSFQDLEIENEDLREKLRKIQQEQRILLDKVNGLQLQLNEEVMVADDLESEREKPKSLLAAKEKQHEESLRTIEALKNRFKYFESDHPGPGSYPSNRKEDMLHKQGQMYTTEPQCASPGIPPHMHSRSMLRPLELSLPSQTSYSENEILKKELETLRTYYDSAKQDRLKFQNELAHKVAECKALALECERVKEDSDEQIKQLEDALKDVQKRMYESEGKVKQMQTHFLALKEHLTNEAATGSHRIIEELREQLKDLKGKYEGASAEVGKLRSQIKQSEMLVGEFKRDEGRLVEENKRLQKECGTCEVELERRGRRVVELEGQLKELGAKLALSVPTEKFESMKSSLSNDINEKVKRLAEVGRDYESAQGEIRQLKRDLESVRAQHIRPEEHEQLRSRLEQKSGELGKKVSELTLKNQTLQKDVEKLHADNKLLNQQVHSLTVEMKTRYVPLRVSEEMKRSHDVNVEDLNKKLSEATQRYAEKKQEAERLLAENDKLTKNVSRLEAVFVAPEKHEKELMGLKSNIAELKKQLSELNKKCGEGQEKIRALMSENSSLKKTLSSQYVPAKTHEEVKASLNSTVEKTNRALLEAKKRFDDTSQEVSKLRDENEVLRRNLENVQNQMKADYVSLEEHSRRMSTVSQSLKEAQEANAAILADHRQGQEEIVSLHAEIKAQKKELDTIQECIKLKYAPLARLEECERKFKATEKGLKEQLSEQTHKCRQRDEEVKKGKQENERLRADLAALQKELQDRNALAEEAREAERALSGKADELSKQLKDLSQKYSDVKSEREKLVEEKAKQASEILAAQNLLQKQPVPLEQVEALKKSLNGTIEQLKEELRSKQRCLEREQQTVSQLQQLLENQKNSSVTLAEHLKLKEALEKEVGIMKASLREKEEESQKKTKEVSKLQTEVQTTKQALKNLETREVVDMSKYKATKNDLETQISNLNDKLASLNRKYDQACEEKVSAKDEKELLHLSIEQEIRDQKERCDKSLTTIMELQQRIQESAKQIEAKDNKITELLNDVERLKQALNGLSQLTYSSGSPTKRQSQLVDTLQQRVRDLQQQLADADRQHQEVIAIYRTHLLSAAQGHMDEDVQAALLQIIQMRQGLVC
B2: Ras-related protein Rab-39A (Mus musculus), Q8BHD0 (parent)
chain: METIWIYQFRLIVIGDSTVGKSCLLHRFTQGRFPGLHSPACDPTVGVDFFSRLLEIEPGKRIKLQLWDTAGQERFRSITRSYYRNSVGGFLVFDITNRRSFEHVKDWLEEAKMHVQPFQIVFLLVGHKCDLASQRQVSREEAERLSTDCGMKYIETSAKDATNVEESFTILTRDIYELIKKGEICIQDGWEGVKSGFVPNTVHSSEEAVKPRKECFC
partner: B1 partner

Legend:
Settings in all cases: with Uaca
[1] = variants of: B1
[2] = variants of: B1; remark: listed apart in the source
[3] = variants of: B2; remark: listed apart in the source
[4] = variants of: B2; remark: listed apart in the source

Variant | effect of a mutation on the interaction [1] | effect of a mutation on the interaction [2] | effect of a mutation on the interaction [3] | effect of a mutation on the interaction [4]
MEAIWLYQFRLIVIGDSTVGKNCLIRRFTEGRFAQVSDPTVGVDFFSRLVEIEPGKRIKLQIWDTAGQERFRSITRAYYRNSVGGLLLFDITNRRSFQNVHEWLEETKVHVQPYQIVFVLVGHKCDLDTQRQVTRHEAEKLAAAYGMKYIETSARDAINVEKAFTDLTRDIYELVKRGEITIQEGWEGVKSGFVPNVVHSSEEVIKSERRCLC [S22N] | disrupting interaction | decreasing interaction |  | 
METIWIYQFRLIVIGDSTVGKNCLLHRFTQGRFPGLHSPACDPTVGVDFFSRLLEIEPGKRIKLQLWDTAGQERFRSITRSYYRNSVGGFLVFDITNRRSFEHVKDWLEEAKMHVQPFQIVFLLVGHKCDLASQRQVSREEAERLSTDCGMKYIETSAKDATNVEESFTILTRDIYELIKKGEICIQDGWEGVKSGFVPNTVHSSEEAVKPRKECFC [S22N] |  |  | disrupting interaction | decreasing interaction
